Test results published in patent publication US20230151068A1 (FRED HUTCHINSON CANCER CENTER, published 2023).

Target: T1, TfR (Biotinylated; site and any biotin-acceptor or purification tag are not stated in the passages seen.)
T1 construct: also called biotinylated TfR ectodomain; control protein
Assay: flow cytometry, 293F cells displaying YAP (SDGF), co-incubated with biotinylated TfR ectodomain (control protein) and streptavidin-Alexa647

T1 sequence (chain, as listed by the source limits assumed): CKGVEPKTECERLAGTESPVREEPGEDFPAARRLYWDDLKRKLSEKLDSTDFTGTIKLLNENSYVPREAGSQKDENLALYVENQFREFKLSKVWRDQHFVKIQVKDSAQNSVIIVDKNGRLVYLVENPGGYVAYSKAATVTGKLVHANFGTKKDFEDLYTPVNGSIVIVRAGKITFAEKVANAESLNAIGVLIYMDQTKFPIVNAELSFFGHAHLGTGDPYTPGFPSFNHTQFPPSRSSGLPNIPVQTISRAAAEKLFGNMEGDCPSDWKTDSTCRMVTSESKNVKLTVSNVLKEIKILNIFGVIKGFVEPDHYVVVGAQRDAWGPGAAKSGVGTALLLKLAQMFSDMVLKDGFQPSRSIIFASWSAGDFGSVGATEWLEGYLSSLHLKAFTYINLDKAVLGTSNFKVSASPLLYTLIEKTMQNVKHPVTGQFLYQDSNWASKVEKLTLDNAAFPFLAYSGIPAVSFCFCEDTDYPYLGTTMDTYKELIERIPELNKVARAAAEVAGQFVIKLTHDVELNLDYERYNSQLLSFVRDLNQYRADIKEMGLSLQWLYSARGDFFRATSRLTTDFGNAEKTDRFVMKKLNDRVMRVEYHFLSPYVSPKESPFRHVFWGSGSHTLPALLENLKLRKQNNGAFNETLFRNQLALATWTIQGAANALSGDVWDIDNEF

B1: SDGF-YAP (50-171), surface-tethered on HEK-293 cells (other, UniProt P46937 50-171, looked up)
chain: AGHQIVHVRGDSETDLEALFNAVMNPKTANVPQTVPMRLRKLPDSFFKPPEPKSHSRQASTDAGTAGALTPQHVRAHSSPASLQLGAVSPGTLTPTGVVSGPAATPTAQHLRQSSFEIPDDV
B1: no binding (tested: not shown on the sheet).
